We go through four molecules from patent US20170313764A1 (ACADEMISCH MEDISCH CENTRUM, published 2017).

Like-named read-outs stand apart in the source and are kept apart here.

Experiment [1] addresses T1, E1E2 of HCV isolate H77 with single mutation W420A (Hepatitis C virus genotype 1a, strain …, UniProt P27958 192-383; P27958 384-746). As to the kind of experiment: ELISA, GNA-captured E1E2 lysate; EC50 wild type / EC50 mutant. A general note: ELISA stands for enzyme-linked immunosorbent assay.
Experiment [2] addresses E1E2 of HCV isolate H77 with single mutation G530A (Hepatitis C virus genotype 1a, strain …, UniProt P27958 192-383; P27958 384-746). The description is as above.
The target in experiment [3] is E1E2 of HCV isolate H77 with single mutation A439G (Hepatitis C virus genotype 1a, strain …, UniProt P27958 192-383; P27958 384-746). Described as above.
In experiment [4] the target is E1E2 of HCV isolate H77 with single mutation T534A (Hepatitis C virus genotype 1a, strain …, UniProt P27958 192-383; P27958 384-746). Described as above.
The target of experiment [5] is E1E2 of HCV isolate H77 with single mutation F442A (Hepatitis C virus genotype 1a, strain …, UniProt P27958 192-383; P27958 384-746). Described as above.
Experiment [6] concerns the target E1E2 of HCV isolate H77 with single mutation G436A (Hepatitis C virus genotype 1a, strain …, UniProt P27958 192-383; P27958 384-746). The experiment is described as above.
Experiment [7] addresses E1E2 of HCV isolate H77 with single mutation N532A (Hepatitis C virus genotype 1a, strain …, UniProt P27958 192-383; P27958 384-746). The experiment is described as above.
The target in experiment [8] is E1E2 of HCV isolate H77 with single mutation V538A (Hepatitis C virus genotype 1a, strain …, UniProt P27958 192-383; P27958 384-746). Described as above.
The target in experiment [9] is E1E2 of HCV isolate H77 with single mutation P612A (Hepatitis C virus genotype 1a, strain …, UniProt P27958 192-383; P27958 384-746). The experiment is described as above.
In experiment [10] the target is E1E2 of HCV isolate H77 with single mutation R657A (Hepatitis C virus genotype 1a, strain …, UniProt P27958 192-383; P27958 384-746). The experiment is described as above.
Experiment [11] deals with E1E2 of HCV isolate H77 with single mutation N423A (Hepatitis C virus genotype 1a, strain …, UniProt P27958 192-383; P27958 384-746). Described as above.
Experiment [12] has as its target E1E2 of HCV isolate H77 with single mutation Y527A (Hepatitis C virus genotype 1a, strain …, UniProt P27958 192-383; P27958 384-746). The experiment is described as above.
The target of experiment [13] is E1E2 of HCV isolate H77 with single mutation W616A (Hepatitis C virus genotype 1a, strain …, UniProt P27958 192-383; P27958 384-746). Described as above.
Experiment [14] deals with E1E2 of HCV isolate H77 with single mutation N325A (in E1) (Hepatitis C virus genotype 1a, strain …, UniProt P27958 192-383; P27958 384-746). The description is as above.
For experiment [15], the target named is E1E2 of HCV isolate H77 with single mutation P664A (Hepatitis C virus genotype 1a, strain …, UniProt P27958 192-383; P27958 384-746). The description is as above.
For experiment [16], the target named is E1E2 of HCV isolate H77 (genotype 1a), wild type (Hepatitis C virus genotype 1a, strain …, UniProt P27958 192-383; P27958 384-746). As to the kind of experiment: cell-based or functional assay.
Experiment [17] deals with E1E2 of HCV isolate UKN4.11.1 (genotype 4) (Hepatitis C virus genotype 4). Nature of the experiment: cell-based or functional assay.
Experiment [18] addresses E1E2 of HCV isolate AMS.3a.21071213 (genotype 3a) (Hepatitis C virus genotype 3a). Nature of the experiment: cell-based or functional assay.
The target of experiment [19] is E1E2 of HCV isolate AMS.4d.20875969 (genotype 4d) (Hepatitis C virus genotype 4d). As to the kind of experiment: cell-based or functional assay.
The target in experiment [20] is T1, E1E2 of HCV isolate H77 with single …. Nature of the experiment: ELISA, GNA-captured E1E2 lysate; EC50 wild type / EC50 mutant. This is another data set of the same source.
In experiment [21] the target is E1E2 of HCV isolate H77 with single mutation L413A (Hepatitis C virus genotype 1a, strain …, UniProt P27958 192-383; P27958 384-746). The experiment is described as above.
The target in experiment [22] is E1E2 of HCV isolate H77 with single mutation G418A (Hepatitis C virus genotype 1a, strain …, UniProt P27958 192-383; P27958 384-746). Described as above.

B1: AT15-012 (antibody, V domains shown)
VH: QVQLVQSGAEVKKPGSSVKVSCKASGGNFNIFPITWVRQAPGQGLEWMGEIIPMLGTPEYAQKFQGRVTITADKSTGTAFMELSSLRSEDTAVYYCARTETTLPGTLFFVYYFHFWGQGTPVTVSS
VL: EIVMTQSPVTLSVSPGERAILSCRASQSVSSSLAWYQQKPGQAPRLLIYGASTRATGVPARFSGSGSGTEFTLTISSVQSEDYAIYFCQQYNDRPPWTFGQGTKVEIK
notes: also called AT15-12
For the molecule B1, the “relative binding, mutant vs wild type” value in experiment [1] was 111%; in [2], 48%; in experiment [3] it was 94%; in experiment [4], 95%; in experiment [5] it was 60%; in experiment [6] it was 91%. Further, the “relative binding, mutant vs wild type” value in experiment [7] came out at 125%; in experiment [8], 103%; in experiment [9] it was 81%; in [10] it was 138%; in experiment [11], 132%; in experiment [12], 76%. Besides, the results for the “relative binding, mutant vs wild type” value in experiment [13], in experiment [14] and in [15] were 71%, 94% and 83%, respectively. Moreover, the “IC50, HCVpp neutralization” value in experiment [16] is 0.26 µg/mL; in experiment [17] it was 1.66 µg/mL; in experiment [18] it was 0.9 µg/mL; in [19], 1.16 µg/mL.

B2: AT12-007 (antibody, V domains shown)
VH: QVQLEQSGAEVKKPGASVKVSCKVSGYTLTELSMHWVRQAPGKGLEWMGSFDPADGERLYAQKFQGRVIMSEDTSTDTAYMELSSLRSEDAAVYYCATAPRMTMFGVIMALDSWGQGTLVTVSS
VL: DIQMTQSPSTLSASLGDRVTITCRASQNINKYLAWYQQKPGKAPKLLIYKASNLQSGVPSRFSGSGSGTDFILTISSLQPDDFATYYCQQYTTYSAWTFGQGTNVDIKR
In the case of B2, the “relative binding, mutant vs wild type” value was found to be 87% in experiment [20], 187% in experiment [21] and 130% in experiment [22].

B3: AT15-009 (antibody, V domains shown)
VH: QVLLVQSGAEVKKPGSSVKVSCKASGGTFSTYAISWLRQAPGQGPEWMGGIVPMFGITNYAQHFQGRITITADKSTSTAYMELSSLGSEDTAVYFCARDLRSGGTFFSRGFDLWGPGTKVTVSS
VL: EIVLTQSPGTLSLSPGERATLSCRASQSVSSSFLTWYQQKPGQAPRLLIFDASTRATGVPDRFSGSGSGTDFTLTISRLEPEDFGVYYCQQFDSSPTFGGGTKVEIK
As for B3, the “relative binding, mutant vs wild type” value worked out at 102% in experiment [1]; 52% in experiment [2]; 97% in experiment [3]; 93% in experiment [4]; 27% in experiment [5]; 93% in [6]. Further, the “relative binding, mutant vs wild type” value came out at 118% in experiment [7]; 126% in [8]; 94% in experiment [9]; 123% in [10]; 111% in experiment [11]; 84% in experiment [12]. Further, the “relative binding, mutant vs wild type” value in experiment [13] amounted to 29%; in experiment [14] it was 103%; in experiment [15] it was 101%. For the same molecule, the “IC50, HCVpp neutralization” value in experiment [16] is 0.14 µg/mL; in [17], 1.33 µg/mL; in experiment [18], 0.71 µg/mL; in experiment [19], 2.26 µg/mL.

B4: AT12-010 (antibody, V domains shown)
VH: QLQLVQSGAEVKKPGSSVKVSCKASGGTFTSYAINWVRQVPGQGLEWMGEISPVFGTTHYAQKFQGRLKITADESADTAYMELSSLRSDDTAVYYCGRDRAPRLCSGGRCHSPPDHWGQGTLVTVSS
VL: DIQMTQSPSSVSASVGDRVTITCRASQGFGNWLAWYQQKPGRAPKLLIFGASTLQNGVPSRFSGSASGTDFTLTITSLQPEDFATYYCLQTNTFPYTFGQGTKVEIKR
On to B4, for which the “relative binding, mutant vs wild type” value was < 10% in [20], 217% in experiment [21] and 203% in experiment [22].
